Results reported in publication PMC6008203.

B1: PtmA2 (Streptomyces platensis; A497K) (protein)
chain: MQHTTIGDVLREHRRSHPGRTALVDGPVRLTWPELDDRVNRLAGSLAASGIGRGDRIMWLGQNSFRVYELIAAAGKLGAMVCVGYWRWAPPEMEFALRDFDPHLVVWQHQEIHETVARTREALGSDDTARWLRHDSAPQDPDGYEAFLAAGGLADPDLDIDPDSPVLVLYTAAMSGRQCGSLLSHTNLIAMATAAAWLGDIDHTTAFLNSGPMFHIGNHQFWGMPTLLMAGKNVIVRRVVAEEVRDLLVAEECTHAFLMPPTVAEIVRLNRDTGHDLSRLRATVAPHLWEGMATTDTSRFTRSGAAAGRGYGQTELSGFAVTAAYGGPAAGNAGRPGPGLTVRVLDTAGRECAVGEAGEICARGTVVHRGYWNRDEVNAHRFRSGWWHTTDLGRREPDGSLTFLGTTTRMLKSAAENIFPAEVENCIEQHPAVREAAVIGVPNTRWAQDVKAVVVLEPDAGVSEQEIIDHCRPRIASYKKPKSVAFAAALPRTVSGKRDYDALDKEYGGGGYPGAATLGPGR
B2: PtmA2 (Streptomyces platensis; A172S/A173G/A497K/C179K/M174T/Q178P) (protein)
chain: MQHTTIGDVLREHRRSHPGRTALVDGPVRLTWPELDDRVNRLAGSLAASGIGRGDRIMWLGQNSFRVYELIAAAGKLGAMVCVGYWRWAPPEMEFALRDFDPHLVVWQHQEIHETVARTREALGSDDTARWLRHDSAPQDPDGYEAFLAAGGLADPDLDIDPDSPVLVLYTSGTSGRPKGSLLSHTNLIAMATAAAWLGDIDHTTAFLNSGPMFHIGNHQFWGMPTLLMAGKNVIVRRVVAEEVRDLLVAEECTHAFLMPPTVAEIVRLNRDTGHDLSRLRATVAPHLWEGMATTDTSRFTRSGAAAGRGYGQTELSGFAVTAAYGGPAAGNAGRPGPGLTVRVLDTAGRECAVGEAGEICARGTVVHRGYWNRDEVNAHRFRSGWWHTTDLGRREPDGSLTFLGTTTRMLKSAAENIFPAEVENCIEQHPAVREAAVIGVPNTRWAQDVKAVVVLEPDAGVSEQEIIDHCRPRIASYKKPKSVAFAAALPRTVSGKRDYDALDKEYGGGGYPGAATLGPGR
B3: PtmA2 (Streptomyces platensis; E416A) (protein)
chain: MQHTTIGDVLREHRRSHPGRTALVDGPVRLTWPELDDRVNRLAGSLAASGIGRGDRIMWLGQNSFRVYELIAAAGKLGAMVCVGYWRWAPPEMEFALRDFDPHLVVWQHQEIHETVARTREALGSDDTARWLRHDSAPQDPDGYEAFLAAGGLADPDLDIDPDSPVLVLYTAAMSGRQCGSLLSHTNLIAMATAAAWLGDIDHTTAFLNSGPMFHIGNHQFWGMPTLLMAGKNVIVRRVVAEEVRDLLVAEECTHAFLMPPTVAEIVRLNRDTGHDLSRLRATVAPHLWEGMATTDTSRFTRSGAAAGRGYGQTELSGFAVTAAYGGPAAGNAGRPGPGLTVRVLDTAGRECAVGEAGEICARGTVVHRGYWNRDEVNAHRFRSGWWHTTDLGRREPDGSLTFLGTTTRMLKSAAANIFPAEVENCIEQHPAVREAAVIGVPNTRWAQDVKAVVVLEPDAGVSEQEIIDHCRPRIASYKKPKSVAFAAALPRTVSGARDYDALDKEYGGGGYPGAATLGPGR
B4: PtmA2 (Streptomyces platensis) (protein)
chain: MQHTTIGDVLREHRRSHPGRTALVDGPVRLTWPELDDRVNRLAGSLAASGIGRGDRIMWLGQNSFRVYELIAAAGKLGAMVCVGYWRWAPPEMEFALRDFDPHLVVWQHQEIHETVARTREALGSDDTARWLRHDSAPQDPDGYEAFLAAGGLADPDLDIDPDSPVLVLYTAAMSGRQCGSLLSHTNLIAMATAAAWLGDIDHTTAFLNSGPMFHIGNHQFWGMPTLLMAGKNVIVRRVVAEEVRDLLVAEECTHAFLMPPTVAEIVRLNRDTGHDLSRLRATVAPHLWEGMATTDTSRFTRSGAAAGRGYGQTELSGFAVTAAYGGPAAGNAGRPGPGLTVRVLDTAGRECAVGEAGEICARGTVVHRGYWNRDEVNAHRFRSGWWHTTDLGRREPDGSLTFLGTTTRMLKSAAENIFPAEVENCIEQHPAVREAAVIGVPNTRWAQDVKAVVVLEPDAGVSEQEIIDHCRPRIASYKKPKSVAFAAALPRTVSGARDYDALDKEYGGGGYPGAATLGPGR
B5: PtmA2 (Streptomyces platensis; A172S/A173G/C179K/M174T/Q178P) (protein)
chain: MQHTTIGDVLREHRRSHPGRTALVDGPVRLTWPELDDRVNRLAGSLAASGIGRGDRIMWLGQNSFRVYELIAAAGKLGAMVCVGYWRWAPPEMEFALRDFDPHLVVWQHQEIHETVARTREALGSDDTARWLRHDSAPQDPDGYEAFLAAGGLADPDLDIDPDSPVLVLYTSGTSGRPKGSLLSHTNLIAMATAAAWLGDIDHTTAFLNSGPMFHIGNHQFWGMPTLLMAGKNVIVRRVVAEEVRDLLVAEECTHAFLMPPTVAEIVRLNRDTGHDLSRLRATVAPHLWEGMATTDTSRFTRSGAAAGRGYGQTELSGFAVTAAYGGPAAGNAGRPGPGLTVRVLDTAGRECAVGEAGEICARGTVVHRGYWNRDEVNAHRFRSGWWHTTDLGRREPDGSLTFLGTTTRMLKSAAENIFPAEVENCIEQHPAVREAAVIGVPNTRWAQDVKAVVVLEPDAGVSEQEIIDHCRPRIASYKKPKSVAFAAALPRTVSGARDYDALDKEYGGGGYPGAATLGPGR

Substrate: CC(C)(COP(=O)(O)OP(=O)(O)OC[C@H]1O[C@@H](n2cnc3c(N)ncnc32)[C@H](O)[C@@H]1OP(=O)(O)O)[C@@H](O)C(=O)NCCC(=O)NCCS
Experiment: purified protein
Type: biochemical, Streptomyces platensis
Settings: saturating 6 (100 μM), Tris pH 7.8, 25 °C

Protein	Km [µM]	Vmax [µmol/min]	kcat [s⁻¹]	kcat/Km [M⁻¹ s⁻¹]	further results
B1	6.8 ± 1.0	4.74	32	4.7e+06	
B2					Km (A497K/P-loop mutant): 69 ± 11 µM; Vmax (A497K/P-loop mutant): 5.94 µmol/min; kcat (A497K/P-loop mutant): 10 s⁻¹; kcat/Km (A497K/P-loop mutant): 140000 M⁻¹ s⁻¹
B3	7.8 ± 1.2	5.34	0.18	23000	
B4	6.2 ± 0.6	5.82	20	3.2e+06	
B5					Km (P-loop mutant): 70 ± 8 µM; Vmax (P-loop mutant): 8.88 µmol/min; kcat (P-loop mutant): 7.4 s⁻¹; kcat/Km (P-loop mutant): 110000 M⁻¹ s⁻¹
